Assay results reported in patent US20250333497A1, “ACTIVATING ANTIBODIES OF RECEPTOR PROTEINS PLXDC1 AND PLXDC2” (THE REGENTS OF THE UNIVERSITY OF CALIFORNIA, priority 2022, published 2025).

How the values were obtained:
[1] = target: T1, Domain A-deleted PLXDC1 (PLXDC1-dA) (Homo sapiens, UniProt Q8IUK5); assay: Domain A binding specificity: binding to Domain A-deleted PLXDC1 expressed in transfected cells; conditions: for binding to PLXDC1 mutant with Domain A deleted: antibodies of Table 3 tested for ability to bind Domain A; for binding to Domain A-deleted PLXDC1 (PLXDC1-dA): transfected into a cell line that does not express PLXDC1, FIG. 3-4
T1 construct: expressed in transfected cells
Source text: (§1) The specific binding to Domain A of a PLXDC protein can be tested with a method described herein. In some embodiments, the method employs a PLXDC with the Domain A deleted. […] An example is Compound 369 as described above.
(§2) The Domain A-binding antibodies are 3-C11, 4-A8, 5-E2, 2-H2, 3-G6, 3-G7, 8-A7, 8-A9, 8-C9 and 8-D9.
(§3) Both full length PLXDC1 and Domain A deleted PLXDC1 (PLXDC1-dA) have an epitope tag on the N-terminus.

[2] = target: T2, full length PLXDC1 (PLXDC1-Full) (Homo sapiens, UniProt Q8IUK5); assay: Domain A binding specificity: binding to full length PLXDC1 expressed in transfected cells; conditions: for binding to PLXDC1: antibodies of Table 3 tested for ability to bind Domain A; for binding to full length PLXDC1 (PLXDC1-Full): transfected into a cell line that does not express PLXDC1, FIG. 3-4
T2 construct: expressed in transfected cells
T2 sequence (Q8IUK5 19-500): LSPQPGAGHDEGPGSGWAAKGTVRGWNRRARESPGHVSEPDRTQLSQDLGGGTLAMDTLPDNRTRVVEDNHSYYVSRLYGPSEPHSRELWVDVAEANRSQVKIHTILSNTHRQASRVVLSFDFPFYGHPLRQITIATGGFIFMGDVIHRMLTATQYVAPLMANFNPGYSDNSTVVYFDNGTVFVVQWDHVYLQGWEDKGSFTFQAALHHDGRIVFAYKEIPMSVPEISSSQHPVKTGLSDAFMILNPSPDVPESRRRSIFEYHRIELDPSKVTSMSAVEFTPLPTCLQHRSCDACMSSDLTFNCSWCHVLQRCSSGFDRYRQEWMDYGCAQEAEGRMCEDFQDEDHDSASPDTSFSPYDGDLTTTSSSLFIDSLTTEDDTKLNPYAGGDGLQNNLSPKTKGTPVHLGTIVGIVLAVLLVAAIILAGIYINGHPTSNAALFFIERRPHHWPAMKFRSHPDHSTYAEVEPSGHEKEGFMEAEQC
Source text: as §1, §2, §3

binding to PLXDC1 mutant with Domain A deleted [1] | binding to Domain A-deleted PLXDC1 (PLXDC1-dA) [1] | binding to PLXDC1 [2] | binding to full length PLXDC1 (PLXDC1-Full) [2] | Molecule
not the mutant with Domain A deleted | did not bind to Domain A-deleted PLXDC1 | able to bind PLXDC1 | only bound to full length PLXDC1 | A002: VH SEQ ID NO:82, VL SEQ ID NO:83; Domain A-binding PLXDC1-activating antibody (antibody, V domains shown) VH: EVQLLESGGGLVQPGGSLRLSCAASGFTFKNYAMSWVRQAPGKGLEWVSAISASGGYTYYADSVKGRFTISRDNSKNTLYLQMNSLRAEDTAVYYCARGRWGAFDYWGQGTLVTVSS VL: QSVLTQPPSVSGAPGQRVTISCTGSSSNIGSGYDVHWYQQLPGTAPKLLIYGNRNRPSGVPDRFSGSKSGTSASLAITGLQAEDEADYYCQSYDSSLKTWVFGGGTKLTVL
not the mutant with Domain A deleted | – | able to bind PLXDC1 | – | A010: VH SEQ ID NO:176, VL SEQ ID NO:177; Domain A-binding PLXDC1-activating antibody (antibody, V domains shown) VH: QVQLVQSGAEVKKPGSSVKVSCKASGGTFSDEAIHWVRQAPGQGLEWMGRIIPVLGIASYAQKFQGRVTITADESTSTAYMELSSLRSEDTAVYYCARGLSRRAFYFDYWGQGTLVTVSS VL: DIQMTQSPSSLSASVGDRVTITCRASQTIGNYLNWYQQKPGKAPKLLIYVASSLQSGVPSRFSGSGSGTDFTLTISSLQPEDFATYYCQQSYRYPYTFGQGTKVEIK
not the mutant with Domain A deleted | did not bind to Domain A-deleted PLXDC1 | able to bind PLXDC1 | only bound to full length PLXDC1 | A005: VH SEQ ID NO:70, VL SEQ ID NO:71; Domain A-binding PLXDC1-activating antibody (antibody, V domains shown) VH: QVQLVESGGGVVQPGRSLRLSCAASGFTFSDYGMHWVRQAPGKGLEWVAVISYDGSRKYYANSVKGRFTISRDNSKNTLYLQMNSLRAEDTAVYYCARGSYSDGFDVWGQGTLVTVSS VL: DIQMTQSPSSLSASVGDRVTITCRASQSISRYLNWYQQKTGKAPKLLIYGASSLQSGVPSRFSGSGSGTDFTLTISSLQPEDFATYYCQQSYSTPYTFGQGTKVEIK
not the mutant with Domain A deleted | did not bind to Domain A-deleted PLXDC1 | able to bind PLXDC1 | only bound to full length PLXDC1 | A004: VH SEQ ID NO:20, VL SEQ ID NO:21; Domain A-binding PLXDC1-activating antibody (antibody, V domains shown) VH: QVQLVESGGGVVQPGRSLRLSCAASGFTFSDYGMHWVRQAPGKGLEWVAVISYEGSNEYYADSVKGRFTISRDNSKNTLYLQMNSLRAEDTAVYYCARGSEGSGFDVWGQGTLVTVSS VL: DIQMTQSPSSLSASVGDRVTITCRASQRISNYLNWYQQKPGKAPKLLIYAASSLQSGVPSRFSGSGSGTDFTLTISSLQPEDFATYYCQQSYSPPYTFGQGTKVEIK
not the mutant with Domain A deleted | did not bind to Domain A-deleted PLXDC1 | able to bind PLXDC1 | only bound to full length PLXDC1 | A001: VH SEQ ID NO:38, VL SEQ ID NO:39; Domain A-binding PLXDC1-activating antibody (antibody, V domains shown) VH: EVQLLESGGGLVQPGGSLRLSCAASGFTFSSYAMSWVRQAPGKGLEWVSTIYASGATTYYADSVKGRFTISRDNSKNTLYLQMNSLRAEDTAVYYCARLKLYHAAFDIWGQGTLVTVSS VL: DIQMTQSPSSLSASVGDRVTITCRASQDISSYLNWYQQKPGKAPKLLIYTASSLQSGVPSRFSGSGSGTDFTLTISSLQPEDFATYYCQQSYSYPLTFGQGTKVEIK
not the mutant with Domain A deleted | – | able to bind PLXDC1 | – | A008: VH SEQ ID NO:116, VL SEQ ID NO:117; Domain A-binding PLXDC1-activating antibody (antibody, V domains shown) VH: EVQLLESGGGLVQPGGSLRLSCAASGFTFSNYAMSWVRQAPGKGLEWVSAISGGGSRTYYADSVKGRFTISRDNSKNTLYLQMNSLRAEDTAVYYCAREARVLGYSLDYWGQGTLVTVSS VL: DIQMTQSPSSLSASVGDRVTITCRASQRIGKYLNWYQQKPGKAPKLLIYAASSLQSGVPSRFSGSGSGTDFTLTISSLQPEDFATYYCQQSYSYPLTFGQGTKVEIK
not the mutant with Domain A deleted | did not bind to Domain A-deleted PLXDC1 | able to bind PLXDC1 | only bound to full length PLXDC1 | A007: VH SEQ ID NO:112, VL SEQ ID NO:113; Domain A-binding PLXDC1-activating antibody (antibody, V domains shown) VH: EVQLLESGGGLVQPGGSLRLSCAASGFTFRNYAMSWVRQAPGKGLEWVSSISGGGINTYYADSVKGRFTISRDNSKNTLYLQMNSLRAEDTAVYYCARVRSYSGPGYFDYWGQGTLVTVSS VL: EIVMTQSPATLSVSPGDRATLSCRASRSVSSNLAWYQQKPGQAPRLLIYGASTRATGIPARFSGSGSGTEFTLTISSLQSEDFAVYYCQQYYNWPLTFGQGTKVEIK
